Experimental data taken from publication PMC11187563, “The importance of tyrosines in multimers of cyclic RGD nonapeptides: towards αvβ6-integrin targeted radiotherapeutics” (RSC Medicinal Chemistry, 2024).
Where two headings read alike, the source gives them in different places.

Tests used:
[1] = tested on: αvβ6-integrin expressing human lung adenocarcinoma cell line H2009 xenografts; assay: Ex vivo biodistribution of 177Lu-labeled peptide tetramers in H2009 xenografted SCID mice; conditions: H2009 bearing SCID mice
Procedure: (§1) The biodistribution of the ^177Lu-labeled peptide conjugates was investigated in severe combined immunodeficiency (SCID) mice bearing subcutaneous xenografts of the αvβ6-integrin expressing human lung adenocarcinoma cell line H2009 on their right shoulders. Two representative time points after i.v. administration (p.i.) were evaluated.
(§2) Analytical HPLC was performed on a Shimadzu (Kyoto, Japan) Prominence HPLC system equipped with either a Dr. Maisch ReproSil Pur C18 AQ 150 × 4.6 mm, 5 μm, 120 Å (AC1) or a Phenomenex Kinetex C18 150 × 4.6 mm 5 μm column (AC2). Semipreparative HPLC was performed on a Shimadzu HPLC system equipped with either a Dr. Maisch ReproSil Pur C18 AQ 250 × 10 mm, 5 μm, 120 Å column with 5 mL min^−1 flow (PC1) or a Dr. Maisch ReproSil Pur C18 150 × 30 mm, 5 μm, 120 Å column with 20 mL min^−1 flow (PC2). Solvents for both systems were water (A) and acetonitrile (B) each supplemented with 0.1% (vol) trifluoroacetic acid (TFA). ESI-MS spectra (positive mode) were recorded on a Shimadzu LC-MS 2020 single quadrupol mass spectrometer. Solvents for MS applications were water (A) and acetonitrile (B) each supplemented with 0.1% (vol) formic acid. The other experimental procedures (determination of log D7.4, cultivation of H2009 human lung adenocarcinoma cells, generation of tumor xenografts in CB17 SCID mice, and biodistribution) were performed as described before.[28] All animal experiments have been carried out according to applicable law and institutional guidelines of Technical University of Munich, and were approved by the responsible local authority (Regierung von Oberbayern). The H2009 cells were regularly authenticated and tested for mycoplasma contamination. DOTPI-tetraazide,[43]FF (previously termed AvB6),[29]FY,[34] and YY (also referred to as Tyr2-alkyne)[36] were synthesized as described previously.

[2] = as above; conditions: CB17 SCID, mouse, iv, total radioactivity, H2009 bearing SCID mice; for tissue uptake at 1.5 h / tissue to tissue ratio at 1.5 h: 90 pmol, 90 min p.i.; for tissue uptake at 72 h / tissue to tissue ratio at 72 h: 92 pmol, 3 d p.i.
Procedure: as §1, §2

[3] = H2009 tumor, read-out: Tumor H2009 %IA/g
[4] = adrenals, read-out: Adrenals %IA/g
[5] = heart (myocard), read-out: Heart (myocard) %IA/g
[6] = kidneys, read-out: Kidneys %IA/g
[7] = large intestine (empty), read-out: Large intestine (empty) %IA/g
[8] = pancreas, read-out: Pancreas %IA/g
[9] = small intestine (empty), read-out: Small intestine (empty) %IA/g
[10] = stomach (empty), read-out: Stomach (empty) %IA/g
[11] = tumor/blood, read-out: tumor/organ ratio, Blood
[12] = tumor/heart (myocard), read-out: tumor/organ ratio, Heart (myocard)
[13] = tumor/liver, read-out: tumor/organ ratio, Liver
[14] = tumor/lung, read-out: tumor/organ ratio, Lung
[15] = tumor/pancreas, read-out: tumor/organ ratio, Pancreas
[16] = tumor/spleen, read-out: tumor/organ ratio, Spleen

## CC(C)C[C@@H]1NC(=O)[C@H](CC(=O)O)NC(=O)CNC(=O)[C@H](CCCNC(=N)N)NC(=O)[C@H](Cc2ccccc2)NC(=O)[C@H](CCCCNC(=O)CCc2cn(CCCNC(=O)CCP(=O)(O)CN3CCN(CP(=O)(O)CCC(=O)NCCCn4cc(CCC(=O)NCCCC[C@H]5C(=O)N[C@@H](Cc6ccccc6)C(=O)N[C@@H](CCCNC(=N)N)C(=O)NCC(=O)N[C@@H](CC(=O)O)C(=O)N[C@@H](CC(C)C)C(=O)N[C@@H](C)C(=O)N[C@@H](Cc6ccccc6)C(=O)N6CCC[C@@H]6C(=O)N5C)nn4)CCN(CP(=O)(O)CCC(=O)NCCCn4cc(CCC(=O)NCCCC[C@H]5C(=O)N[C@@H](Cc6ccccc6)C(=O)N[C@@H](CCCNC(=N)N)C(=O)NCC(=O)N[C@@H](CC(=O)O)C(=O)N[C@@H](CC(C)C)C(=O)N[C@@H](C)C(=O)N[C@@H](Cc6ccccc6)C(=O)N6CCC[C@@H]6C(=O)N5C)nn4)CCN(CP(=O)(O)CCC(=O)NCCCn4cc(CCC(=O)NCCCC[C@H]5C(=O)N[C@@H](Cc6ccccc6)C(=O)N[C@@H](CCCNC(=N)N)C(=O)NCC(=O)N[C@@H](CC(=O)O)C(=O)N[C@@H](CC(C)C)C(=O)N[C@@H](C)C(=O)N[C@@H](Cc6ccccc6)C(=O)N6CCC[C@@H]6C(=O)N5C)nn4)CC3)nn2)N(C)C(=O)[C@H]2CCCN2C(=O)[C@H](Cc2ccccc2)NC(=O)[C@H](C)NC1=O [Compound 177Lu-Y0, metal not drawn]
[1]; 90 min p.i.
  tumor/organ ratio, Kidneys: 0.0
[1]; 3 d p.i.
  tumor/organ ratio, Kidneys: 0.0
[2]; [3]
  tissue uptake at 1.5 h: 3.23 %ID/g
  tissue uptake at 72 h: 1.72 %ID/g
[2]; [4]
  tissue uptake at 1.5 h: 1.36 %ID/g
  tissue uptake at 72 h: 0.82 %ID/g
[2]; blood, read-out: Blood %IA/g
  tissue uptake at 1.5 h: 1.2 %ID/g
  tissue uptake at 72 h: 0.02 %ID/g
[2]; bone, read-out: Bone %IA/g
  tissue uptake at 1.5 h: 1.45 %ID/g
  tissue uptake at 72 h: 0.42 %ID/g
[2]; [5]
  tissue uptake at 1.5 h: 1.13 %ID/g
  tissue uptake at 72 h: 0.43 %ID/g
[2]; [6]
  tissue uptake at 1.5 h: 208 %ID/g
  tissue uptake at 72 h: 243 %ID/g
[2]; [7]
  tissue uptake at 1.5 h: 3 %ID/g
  tissue uptake at 72 h: 1.19 %ID/g
[2]; liver, read-out: Liver %IA/g
  tissue uptake at 1.5 h: 5.03 %ID/g
  tissue uptake at 72 h: 2.61 %ID/g
[2]; lung, read-out: Lung %IA/g
  tissue uptake at 1.5 h: 3.59 %ID/g
  tissue uptake at 72 h: 1.22 %ID/g
[2]; muscle, read-out: Muscle %IA/g
  tissue uptake at 1.5 h: 0.53 %ID/g
  tissue uptake at 72 h: 0.29 %ID/g
[2]; [8]
  tissue uptake at 1.5 h: 0.49 %ID/g
  tissue uptake at 72 h: 0.31 %ID/g
[2]; [9]
  tissue uptake at 1.5 h: 1.67 %ID/g
  tissue uptake at 72 h: 0.82 %ID/g
[2]; spleen, read-out: Spleen %IA/g
  tissue uptake at 1.5 h: 2.22 %ID/g
  tissue uptake at 72 h: 1.58 %ID/g
[2]; [10]
  tissue uptake at 1.5 h: 4.15 %ID/g
  tissue uptake at 72 h: 2.63 %ID/g
[2]; tumor / adrenals, read-out: tumor/organ ratio, Adrenals
  tissue to tissue ratio at 72 h: 2.1
[2]; tumor / bone, read-out: tumor/organ ratio, Bone
  tissue to tissue ratio at 72 h: 5
[2]; tumor / large intestine (empty), read-out: tumor/organ ratio, Large intestine (empty)
  tissue to tissue ratio at 72 h: 2.1
[2]; tumor / muscle, read-out: tumor/organ ratio, Muscle
  tissue to tissue ratio at 72 h: 8.2
[2]; tumor / small intestine (empty), read-out: tumor/organ ratio, Small intestine (empty)
  tissue to tissue ratio at 72 h: 2.2
[2]; tumor / stomach (empty), read-out: tumor/organ ratio, Stomach (empty)
  tissue to tissue ratio at 72 h: 0.8
[2]; tumor/adrenals, read-out: tumor/organ ratio, Adrenals
  tissue to tissue ratio at 1.5 h: 2.9
[2]; [11]
  tissue to tissue ratio at 1.5 h: 2.7
  tissue to tissue ratio at 72 h: 97.5
[2]; tumor/bone, read-out: tumor/organ ratio, Bone
  tissue to tissue ratio at 1.5 h: 2.4
[2]; [12]
  tissue to tissue ratio at 1.5 h: 3
  tissue to tissue ratio at 72 h: 4.3
[2]; tumor/large intestine (empty), read-out: tumor/organ ratio, Large intestine (empty)
  tissue to tissue ratio at 1.5 h: 1.1
[2]; [13]
  tissue to tissue ratio at 1.5 h: 0.7
  tissue to tissue ratio at 72 h: 0.7
[2]; [14]
  tissue to tissue ratio at 1.5 h: 0.9
  tissue to tissue ratio at 72 h: 1.5
[2]; tumor/muscle, read-out: tumor/organ ratio, Muscle
  tissue to tissue ratio at 1.5 h: 6
[2]; [15]
  tissue to tissue ratio at 1.5 h: 6.7
  tissue to tissue ratio at 72 h: 6.3
[2]; tumor/small intestine (empty), read-out: tumor/organ ratio, Small intestine (empty)
  tissue to tissue ratio at 1.5 h: 2
[2]; [16]
  tissue to tissue ratio at 1.5 h: 1.6
  tissue to tissue ratio at 72 h: 1.1
[2]; tumor/stomach (empty), read-out: tumor/organ ratio, Stomach (empty)
  tissue to tissue ratio at 1.5 h: 0.8
